Target: recombinant PD-L1, His tagged (human, UniProt Q9NZQ7 19-239)
Test: pull-down

recombinant PD-L1, His tagged, sequence (Q9NZQ7 19-239): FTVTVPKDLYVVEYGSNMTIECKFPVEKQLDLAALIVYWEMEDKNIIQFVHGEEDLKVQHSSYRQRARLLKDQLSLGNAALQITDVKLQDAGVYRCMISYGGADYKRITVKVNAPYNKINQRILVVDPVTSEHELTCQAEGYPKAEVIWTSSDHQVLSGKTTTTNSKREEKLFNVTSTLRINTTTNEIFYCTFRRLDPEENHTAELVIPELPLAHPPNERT

B1: XQ-P3 biotinylated (ssDNA)
DNA: ACCGACCGTGCTGGACTCATCTCGCTTTTTTCACGGTCCACACTACTATGAGCGAGCCTGGCG
modifications: biotin
  binding result: binds

From article PMC7331476
